T1: FcγRIIb extracellular domain with C-terminal His tag (human, UniProt P31994 43-217)
T1 construct: extracellular domain; expressed in FreeStyle293 cells; analyte in the Biacore assay; also called FcgRIIb; 2b; not shown: His tag at the C terminus
T1 sequence (looked up): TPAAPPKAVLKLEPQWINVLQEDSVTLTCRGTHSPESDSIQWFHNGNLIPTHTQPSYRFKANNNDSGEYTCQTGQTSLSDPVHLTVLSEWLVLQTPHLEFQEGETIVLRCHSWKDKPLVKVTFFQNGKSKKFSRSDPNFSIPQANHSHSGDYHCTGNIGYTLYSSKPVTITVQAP

B1: GpH7-A5/GpH7-B3 variant I332_09D/GpL16-k0 (antibody, human IgG1, kappa)
heavy 1: not shown
heavy 2: not shown
light: DIVMTQSPLSLPVTPGEPASISCQASESLVHSNRNTYLHWYLQKPGQSPQLLIYKVSNRFSGVPDRFSGSGSGTDFTLKISRVEAEDVGVYYCSQNTHVPPTFGQGTKVEIERTVAAPSVFIFPPSDEQLKSGTASVVCLLNNFYPREAKVQWKVDNALQSGNSQESVTEQDSKDSTYSLSSTLTLSKADYEKHKVYACEVTHQGLSSPVTKSFNRGEC
notes: heterodimerized; mutation in the B3 H chain only; also called He Ab I332_09D
B2: GpH7-A5/GpH7-B3 variant S239_10E/GpL16-k0 (antibody, human IgG1, kappa)
heavy 1: not shown
heavy 2: not shown
light: B1 light
notes: heterodimerized; mutation in the B3 H chain only; also called He Ab S239_10E
B3: GpH7-A5/GpH7-B3 variant Y296_20W/GpL16-k0 (antibody, human IgG1, kappa)
heavy 1: not shown
heavy 2: not shown
light: B1 light
notes: heterodimerized; mutation in the B3 H chain only; also called He Ab Y296_20W
B4: GpH7-A5/GpH7-B3 variant P331_16H/GpL16-k0 (antibody, human IgG1, kappa)
heavy 1: not shown
heavy 2: not shown
light: B1 light
notes: heterodimerized; mutation in the B3 H chain only; also called He Ab P331_16H
B5: GpH7-A5/GpH7-B3 variant K326_15Y/GpL16-k0 (antibody, human IgG1, kappa)
heavy 1: not shown
heavy 2: not shown
light: B1 light
notes: heterodimerized; mutation in the B3 H chain only; also called He Ab K326_15Y
B6: GpH7-A5/GpH7-B3 variant K326_09D/GpL16-k0 (antibody, human IgG1, kappa)
heavy 1: not shown
heavy 2: not shown
light: B1 light
notes: heterodimerized; mutation in the B3 H chain only; also called He Ab K326_09D
B7: GpH7-A5/GpH7-B3 variant K334_13S/GpL16-k0 (antibody, human IgG1, kappa)
heavy 1: not shown
heavy 2: not shown
light: B1 light
notes: heterodimerized; mutation in the B3 H chain only; also called He Ab K334_13S
B8: GpH7-A5/GpH7-B3 variant S239_03V/GpL16-k0 (antibody, human IgG1, kappa)
heavy 1: not shown
heavy 2: not shown
light: B1 light
notes: heterodimerized; mutation in the B3 H chain only; also called He Ab S239_03V
B9: GpH7-A5/GpH7-B3 variant T335_10E/GpL16-k0 (antibody, human IgG1, kappa)
heavy 1: not shown
heavy 2: not shown
light: B1 light
notes: heterodimerized; mutation in the B3 H chain only; also called He Ab T335_10E
B10: GpH7-A5/GpH7-B3 variant L328_13S/GpL16-k0 (antibody, human IgG1, kappa)
heavy 1: not shown
heavy 2: not shown
light: B1 light
notes: heterodimerized; mutation in the B3 H chain only; also called He Ab L328_13S
B11: GpH7-A5/GpH7-B3 variant K326_20W/GpL16-k0 (antibody, human IgG1, kappa)
heavy 1: not shown
heavy 2: not shown
light: B1 light
notes: heterodimerized; mutation in the B3 H chain only; also called He Ab K326_20W
B12: GpH7-A5/GpH7-B3 variant P238_09D/GpL16-k0 (antibody, human IgG1, kappa)
heavy 1: not shown
heavy 2: not shown
light: B1 light
notes: heterodimerized; mutation in the B3 H chain only; also called He Ab P238_09D
B13: GpH7-A5/GpH7-B3 variant I332_14T/GpL16-k0 (antibody, human IgG1, kappa)
heavy 1: not shown
heavy 2: not shown
light: B1 light
notes: heterodimerized; mutation in the B3 H chain only; label printed T332_14T, read as I332_14T; also called He Ab I332_14T
B14: GpH7-A5/GpH7-B3 variant K334_05P/GpL16-k0 (antibody, human IgG1, kappa)
heavy 1: not shown
heavy 2: not shown
light: B1 light
notes: heterodimerized; mutation in the B3 H chain only; also called He Ab K334_05P
B15: GpH7-A5/GpH7-B3 variant K334_04F/GpL16-k0 (antibody, human IgG1, kappa)
heavy 1: not shown
heavy 2: not shown
light: B1 light
notes: heterodimerized; mutation in the B3 H chain only; also called He Ab K334_04F
B16: GpH7-A5/GpH7-B3 variant K326_04F/GpL16-k0 (antibody, human IgG1, kappa)
heavy 1: not shown
heavy 2: not shown
light: B1 light
notes: heterodimerized; mutation in the B3 H chain only; also called He Ab K326_04F
B17: GpH7-A5/GpH7-B3 variant P331_20W/GpL16-k0 (antibody, human IgG1, kappa)
heavy 1: not shown
heavy 2: not shown
light: B1 light
notes: heterodimerized; mutation in the B3 H chain only; also called He Ab P331_20W
B18: GpH7-A5/GpH7-B3 variant K326_10E/GpL16-k0 (antibody, human IgG1, kappa)
heavy 1: not shown
heavy 2: not shown
light: B1 light
notes: heterodimerized; mutation in the B3 H chain only; also called He Ab K326_10E
B19: GpH7-A5/GpH7-B3 variant P331_15Y/GpL16-k0 (antibody, human IgG1, kappa)
heavy 1: not shown
heavy 2: not shown
light: B1 light
notes: heterodimerized; mutation in the B3 H chain only; also called He Ab P331_15Y
B20: GpH7-A5/GpH7-B3 variant I332_10E/GpL16-k0 (antibody, human IgG1, kappa)
heavy 1: not shown
heavy 2: not shown
light: B1 light
notes: heterodimerized; mutation in the B3 H chain only; also called He Ab I332_10E
B21: GpH7-A5/GpH7-B3 variant K334_07I/GpL16-k0 (antibody, human IgG1, kappa)
heavy 1: not shown
heavy 2: not shown
light: B1 light
notes: heterodimerized; mutation in the B3 H chain only; also called He Ab K334_07I
B22: GpH7-A5/GpH7-B3 variant P238_15Y/GpL16-k0 (antibody, human IgG1, kappa)
heavy 1: not shown
heavy 2: not shown
light: B1 light
notes: heterodimerized; mutation in the B3 H chain only; also called He Ab P238_15Y
B23: GpH7-A5/GpH7-B3 variant S337_16H/GpL16-k0 (antibody, human IgG1, kappa)
heavy 1: not shown
heavy 2: not shown
light: B1 light
notes: heterodimerized; mutation in the B3 H chain only; also called He Ab S337_16H
B24: GpH7-A5/GpH7-B3 variant S324_06M/GpL16-k0 (antibody, human IgG1, kappa)
heavy 1: not shown
heavy 2: not shown
light: B1 light
notes: heterodimerized; mutation in the B3 H chain only; also called He Ab S324_06M
B25: GpH7-A5/GpH7-B3 variant K334_02A/GpL16-k0 (antibody, human IgG1, kappa)
heavy 1: not shown
heavy 2: not shown
light: B1 light
notes: heterodimerized; mutation in the B3 H chain only; also called He Ab K334_02A
B26: GpH7-A5/GpH7-B3 variant K334_08L/GpL16-k0 (antibody, human IgG1, kappa)
heavy 1: not shown
heavy 2: not shown
light: B1 light
notes: heterodimerized; mutation in the B3 H chain only; also called He Ab K334_08L
B27: GpH7-A5/GpH7-B3 variant K326_14T/GpL16-k0 (antibody, human IgG1, kappa)
heavy 1: not shown
heavy 2: not shown
light: B1 light
notes: heterodimerized; mutation in the B3 H chain only; also called He Ab K326_14T
B28: GpH7-A5/GpH7-B3 variant K326_03V/GpL16-k0 (antibody, human IgG1, kappa)
heavy 1: not shown
heavy 2: not shown
light: B1 light
notes: heterodimerized; mutation in the B3 H chain only; also called He Ab K326_03V

These binders were tested against T1, FcγRIIb extracellular domain with … (assay: SPR (Biacore), captured antibody, FcγRIIb analyte; binding relative to GpH7-A5/GpH7-B3/GpL16-k0 = 100).

Going from B1 to B2, the He/Con_2b rises from 147 % of control to 181 % of control.

Going from B3 to B4, the He/Con_2b rises from 103 % of control to 116 % of control.

Going from B5 to B6, the He/Con_2b rises from 159 % of control to 193 % of control.

Going from B7 to B8, the He/Con_2b falls from 111 % of control to 108 % of control.

First: B9
Second: B10
The He/Con_2b of the first is lower: 108 % of control for the first, 149 % of control for the second.

Compared with B11, B12 is higher in He/Con_2b: 148 % of control for the first, 221 % of control for the second.

First: B13
Second: B14
The He/Con_2b of the first is higher: 106 % of control for the first, 105 % of control for the second.

First: B15
Second: B16
The He/Con_2b of the first is lower: 111 % of control for the first, 155 % of control for the second.

Compared with B17, B18 is higher in He/Con_2b: 111 % of control for the first, 200 % of control for the second.

Compared with B19, B20 is higher in He/Con_2b: 114 % of control for the first, 142 % of control for the second.

Compared with B21, B22 is higher in He/Con_2b: 119 % of control for the first, 218 % of control for the second.

Compared with B23, B24 is higher in He/Con_2b: 105 % of control for the first, 112 % of control for the second.

Going from B25 to B26, the He/Con_2b falls from 108 % of control to 106 % of control.

Compared with B27, B28 is higher in He/Con_2b: 150 % of control for the first, 175 % of control for the second.

Reference: US20180155451A1 (published 2018)
